Common to all, as to assay: SPR, ligand directly immobilised, soluble Fcγ receptor as analyte, pH 7.3
For orientation: SPR reads the build-up and loss of mass on a sensor chip optically.

The target of test [1] is human FcγRIIIA (CD16a) (human) (UniProt P08637).
For test [2], the target named is human FcγRIIB (CD32B) (human) (UniProt P31994).
Test [3] has as its target human FcγRI (CD64) (human) (UniProt P12314).

The Kd is the equilibrium constant for the complex coming apart.

Sequence of human FcγRIIIA (CD16a) (human) (P08637 17-208): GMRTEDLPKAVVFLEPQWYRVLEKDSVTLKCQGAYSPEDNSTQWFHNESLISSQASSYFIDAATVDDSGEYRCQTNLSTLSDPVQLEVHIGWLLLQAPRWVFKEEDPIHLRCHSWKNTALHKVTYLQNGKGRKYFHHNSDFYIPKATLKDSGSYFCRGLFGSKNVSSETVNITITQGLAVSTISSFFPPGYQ
Sequence of human FcγRIIB (CD32B) (human) (P31994 43-217): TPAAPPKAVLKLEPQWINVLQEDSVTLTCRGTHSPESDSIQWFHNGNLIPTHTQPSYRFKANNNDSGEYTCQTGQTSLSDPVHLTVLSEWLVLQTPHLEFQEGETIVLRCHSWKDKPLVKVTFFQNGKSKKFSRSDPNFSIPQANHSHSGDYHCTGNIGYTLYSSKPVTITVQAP
Sequence of human FcγRI (CD64) (human) (P12314 16-292): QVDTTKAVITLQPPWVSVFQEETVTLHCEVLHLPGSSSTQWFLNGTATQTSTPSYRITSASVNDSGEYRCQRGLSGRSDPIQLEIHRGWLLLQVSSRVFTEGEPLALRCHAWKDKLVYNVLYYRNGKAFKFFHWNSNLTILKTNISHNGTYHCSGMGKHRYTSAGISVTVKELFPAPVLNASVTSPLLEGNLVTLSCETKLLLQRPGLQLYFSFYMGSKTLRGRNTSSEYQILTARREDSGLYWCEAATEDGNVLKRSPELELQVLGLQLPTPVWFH

With huIgG1 (antibody), the figures for the Kd in test [1], in test [2] and in test [3] were 4.5 µM, 5.8 µM and 0.000345 µM, respectively.

(Values after patent US20260209357A1.)
